Patent US20240052052A1 (ANTENGENE BIOLOGICS, published 2024)

Legend:
human CD24 [1] = molecular target: T1, human CD24 (human, UniProt P25063 27-59, heavily glycosylated, GPI-anchored (as described in the background)); experiment: FACS, MDA-MB-468 cells
T1 construct: whole, on cells; Target of all cell-based FACS assays; also called hCD24; Cluster of differentiation 24
T1 chain (looked up): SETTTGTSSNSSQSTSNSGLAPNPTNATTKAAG
How it was run: (§1)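 Human IgG4 chimeric antibodies were tested for binding to cells detached with TrypLE Express and washed twice in cold FACS buffer. Antibody incubation ran 1 h […], followed by washes and a secondary antibody for 1 h at 4 degree in the dark before flow cytometry.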

human CD24 [2] = molecular target: T1, human CD24; experiment: cell-based or functional assay
human CD24 [3] = molecular target: T1, human CD24; experiment: FACS, 293F-hCD24 cells
Protocol: (§2) Screening & Expansion: The subcloning plates were screened by Acumen assay and the subclones with good binding ability were expanded to 24-wells for confirmation tests. The specificity and cross-reactivity of these subclones were confirmed with FACs analysis. […] Fluorescent dye-conjugated secondary antibody was used to detect the binding of the primary antibody with the cells. Median fluorescence intensity (MFI) was measured by FACs analysis.

human CD24 [4] = molecular target: T1, human CD24; experiment: FACS, HT-29 cells
Protocol: (§3) Sequences of some of antibodies from Table 1 were selected to generate and produce human IgG4 chimeric antibodies. […] The protocol for FACs analysis is described as follows: [0536] a. Digested cells using TrypLE™ Express Enzyme (IX); Centrifuged the harvested cells at 400 g for 5 min and discarding the supernatant. [0537] b. Washed the cells 2 times with cold FACS buffer by centrifuging at 400 g for 5 min and discarding the supernatant. [0538] c. […] Incubate at […] for 1 h. [0539] d. Washed the cells twice by using the condition in step b. Resuspended the cells with 100 μl/well diluted 2nd antibody, incubated at 4 degree for 1 h in the dark. [0540] e. Washed the cells twice by using the condition in step b. Resuspended the cells with 100 μl/well cold FACS buffer. Kept the cells in dark for FACS analysis.

human CD24 [5] = molecular target: T1, human CD24; experiment: FACS, MCF7 cells
Protocol: as §2

human CD24 [6] = molecular target: T1, human CD24; experiment: FACS, CHOK1-hCD24 cells
How it was run: as §1

human CD24 [7] = molecular target: T1, human CD24; experiment: FACS, Nalm1 cells
human CD24 [8] = molecular target: T1, human CD24; experiment: FACS, 293F-hCD24 cells
human CD24 [9] = molecular target: T1, human CD24; experiment: FACS, MDA-MB-468 cells
human CD24 [10] = molecular target: T1, human CD24; experiment: FACS, MCF7 cells
human CD24 [11] = molecular target: T1, human CD24; experiment: FACS, A549 cells
Protocol: as §3

human CD24 [12] = molecular target: T1, human CD24; experiment: FACS, 5637 cells
How it was run: as §1

human CD24 [13] = molecular target: T1, human CD24; experiment: FACS, Nalm1 cells
How it was run: as §1

human CD24 [14] = molecular target: T1, human CD24; experiment: FACS, 293F-hCD24 cells
How it was run: as §1

human CD24 [15] = molecular target: T1, human CD24; experiment: FACS, 5637 cells
human CD24 [16] = molecular target: T1, human CD24; experiment: FACS, CHOK1-hCD24 cells
human CD24 [17] = molecular target: T1, human CD24; experiment: FACS, 5637 cells
Protocol: as §2

human CD24 [18] = molecular target: T1, human CD24; experiment: FACS, H1975 cells
Protocol: as §2

human CD24 [19] = molecular target: T1, human CD24; experiment: FACS, MCF7 cells
How it was run: as §1

human CD24 [20] = molecular target: T1, human CD24; experiment: FACS, H1975 cells
Protocol: as §3

human CD24 [21] = molecular target: T1, human CD24; experiment: FACS, Nalm1 cells
Protocol: as §2

B1: SN3 (antibody, V domains shown)
VH: QVQLKESGPGLVAPSQSLSITCTVSGFSLTSYGVHWVRQPPGKGLEWLGVIWAGGSTNYNSALMSRLSISKDNSKSQVFLKMNSLQTDDTAMYYCAVYYGYLFFAYWGQGTLVTVSA
VL: ENVLTQSPAIMSASPGEKVTMTCSASSSVSYMHWYQQKSTTSPKLWIYDTSKLASGVPGRFSGSGSGNSYSLTISSMEAEDVATYYCFQGSGYPLTFGGGTKLEIK
Human CD24 [1]
  EC50: 4.2 nM
  FACS MFI: 6690
  Max MFI: 10800
Human CD24 [2]
  EC50 (nM), phagocytosis against HT-29 cells: 2.1 nM
  Max phagocytosis Index (%), phagocytosis against HT-29 cells: 68.2%
Human CD24 [3]
  FACS MFI: 6560
Human CD24 [4]
  EC50: 6.61 nM
  Max MFI: 5900
Human CD24 [5]
  FACS MFI: 1080
Human CD24 [6]
  EC50: 3.63 nM
  Max MFI: 29700
Human CD24 [7]
  EC50: 5.08 nM
Human CD24 [8]
  EC50: 3.5 nM
Human CD24 [9]
  EC50: 7.37 nM
Human CD24 [10]
  EC50: 6.54 nM
Human CD24 [11]
  EC50: 3 nM
  Max MFI: 8820
Human CD24 [12]
  EC50: 2.7 nM
Human CD24 [13]
  EC50: 3.43 nM
  Max MFI: 48400
Human CD24 [14]
  EC50: 3.25 nM
  Max MFI: 34100
Human CD24 [15]
  EC50: 5.74 nM
Human CD24 [16]
  EC50: 8.67 nM
Human CD24 [17]
  FACS MFI: 9400
Human CD24 [18]
  FACS MFI: 5210
Human CD24 [19]
  EC50: 8 nM
  Max MFI: 761
Human CD24 [20]
  EC50: 8.26 nM
Human CD24 [21]
  FACS MFI: 11800
